In one series the target is T1, Hop1 (Saccharomyces cerevisiae, UniProt P20050).
T1 construct: full-length His6-tagged WT Hop1
T1 sequence (P20050 1-605): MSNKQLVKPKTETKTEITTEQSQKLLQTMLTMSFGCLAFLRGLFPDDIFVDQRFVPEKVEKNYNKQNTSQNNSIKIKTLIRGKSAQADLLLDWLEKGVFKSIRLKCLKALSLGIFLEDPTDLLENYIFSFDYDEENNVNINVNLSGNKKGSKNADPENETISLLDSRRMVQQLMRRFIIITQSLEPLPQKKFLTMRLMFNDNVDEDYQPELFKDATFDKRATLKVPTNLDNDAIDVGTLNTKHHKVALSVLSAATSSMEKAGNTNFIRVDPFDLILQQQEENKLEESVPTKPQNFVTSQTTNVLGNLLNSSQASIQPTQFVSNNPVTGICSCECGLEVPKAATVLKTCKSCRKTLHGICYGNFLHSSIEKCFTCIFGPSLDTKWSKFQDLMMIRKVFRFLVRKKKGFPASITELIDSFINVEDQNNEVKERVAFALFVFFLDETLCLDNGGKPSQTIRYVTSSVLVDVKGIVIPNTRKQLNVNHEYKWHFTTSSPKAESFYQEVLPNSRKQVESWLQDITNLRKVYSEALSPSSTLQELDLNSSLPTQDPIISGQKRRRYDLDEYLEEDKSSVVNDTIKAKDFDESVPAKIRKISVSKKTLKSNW
Put plainly: ITC (also ATP-agarose chromatography, UV crosslinking/filter binding, ATPase kinetics with Km […]).

A further series concerns the target T2, Hop1 WT (Saccharomyces cerevisiae, UniProt P20050 1-605).
T2 sequence: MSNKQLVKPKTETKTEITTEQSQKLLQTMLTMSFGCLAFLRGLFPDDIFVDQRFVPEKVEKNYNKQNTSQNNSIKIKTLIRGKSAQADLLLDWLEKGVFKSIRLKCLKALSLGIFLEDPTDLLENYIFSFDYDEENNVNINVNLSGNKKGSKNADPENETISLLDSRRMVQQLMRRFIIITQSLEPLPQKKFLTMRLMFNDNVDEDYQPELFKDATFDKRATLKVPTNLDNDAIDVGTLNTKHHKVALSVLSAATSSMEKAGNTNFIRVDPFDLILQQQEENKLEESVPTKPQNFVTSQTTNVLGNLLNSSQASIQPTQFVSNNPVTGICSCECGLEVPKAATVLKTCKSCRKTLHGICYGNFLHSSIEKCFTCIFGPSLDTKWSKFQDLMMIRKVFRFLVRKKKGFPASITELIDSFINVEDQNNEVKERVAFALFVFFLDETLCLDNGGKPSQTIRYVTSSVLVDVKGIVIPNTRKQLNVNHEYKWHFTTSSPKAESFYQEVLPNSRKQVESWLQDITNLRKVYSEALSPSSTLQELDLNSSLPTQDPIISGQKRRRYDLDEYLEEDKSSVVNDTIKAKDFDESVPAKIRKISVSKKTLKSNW
The series can be described thus: MST; 25 nM HJ; EMSA: 25 mM HEPES pH 7.5, 0.5 nM 32P-HJ, 37 C 15 min, 8% PAGE in TBE (25 mM Tris base pH 8.0, 25 mM boric acid, 0.5 mM EDTA) at 4 C; MST: 25 nM 6-FAM HJ, buffer not in material. The note with it: protein: recombinant; tags: N-terminal His6 (pET28a); label: 5'-6FAM on HJ02; four-way junction of 4 strands. On the technique in general: In EMSA bound probe runs differently from free probe, usually more slowly.

The target in another series is T3, Hop1 HORMA domain (S. cerevisiae, UniProt P20050 20-250, Red-tris-NTA label (in the MST only)).
T3 construct: Hop1, S. cerevisiae, N-terminal HORMA domain; Amplified from pET28a-HOP1 and cloned NdeI/XhoI into pET14b; also called N-terminal HORMA domain; N-terminal region of Hop1; source: E. coli Rosetta (DE3), pET-14b, purified (Ni2+-NTA); not shown: His tag (inferred: Ni2+-NTA purification); Red-tris-NTA labelling; anti-His detection
T3 sequence (looked up): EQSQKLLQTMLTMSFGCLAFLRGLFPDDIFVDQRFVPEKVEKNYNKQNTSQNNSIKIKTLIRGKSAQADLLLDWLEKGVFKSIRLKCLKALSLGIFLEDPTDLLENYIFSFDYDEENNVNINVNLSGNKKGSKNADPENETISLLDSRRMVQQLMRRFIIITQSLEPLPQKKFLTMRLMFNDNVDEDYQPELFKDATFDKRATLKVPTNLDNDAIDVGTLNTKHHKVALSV
Put plainly: MST; Red-tris-NTA labelled Hop1 HORMA domain fixed at 20 nM, Hop1-CTD titrated 0.00031 to 10 uM; incubated at 37°C for 15 min; Pico-RED, 5% excitation power; Hill model; apparent Kd. The note with it: both partners purified.

On Hop1, `Nc1ncnc2c1ncn2C1OC(COP(=O)(O)OP(=O)(O)OP(=O)(O)O)C(O)C1O` (stereo not drawn) [ATP] gave a Kd of approximately 32900 nM.

B1: Holliday junction (HJ), 6-FAM (structured_DNA)
DNA 1: GACGCTGCCGAATTCTACCAGTGCCTTGCTAGGACATCTTTGCCCACCTGCCGGTTCACCC
DNA 2: TGGGTGAACCTGCAGGTGGGCAAAGATGTCCTAGCAATGTAATCGTCAAAGCTTTATGCCGTT
DNA 3: CAACGGCATAAAGCTTGACGATTACATTGCTAGGACATGCTGTCTAGAGGATCCGACTATCGA
DNA 4: ATCGATAGTCGGATCCTCTAGACAGCATGTCCTAGCAAGGCACTGGTAGAATTCGGCAGCGT
For B1, in the series with Hop1 WT, the Kd amounted to 206 nM.

B2: Hop1-CTD (domain or fragment)
chain: LSAATSSMEKAGNTNFIRVDPFDLILQQQEENKLEESVPTKPQNFVTSQTTNVLGNLLNSSQASIQPTQFVSNNPVTGICSCECGLEVPKAATVLKTCKSCRKTLHGICYGNFLHSSIEKCFTCIFGPSLDTKWSKFQDLMMIRKVFRFLVRKKKGFPASITELIDSFINVEDQNNEVKERVAFALFVFFLDETLCLDNGGKPSQTIRYVTSSVLVDVKGIVIPNTRKQLNVNHEYKWHFTTSSPKAESFYQEVLPNSRKQVESWLQDITNLRKVYSEALSPSSTLQELDLNSSLPTQDPIISGQKRRRYDLDEYLEEDKSSVVNDTIKAKDFDESVPAKIRKISVSKKTLKSNW
As to B2, in the series with Hop1 HORMA domain, the Kd stood at 1900 ± 500 nM.

Source of the values: article PMC11797056, “The ATPase activity of yeast chromosome axis protein Hop1 affects the frequency of meiotic crossovers” (Nucleic Acids Research, 2024).
